The target of experiment [1] is T1, 158P1D7 protein expressed on the cell surface (human, UniProt Q9H5Y7 27-841).
T1 construct: No signal peptide limits are stated; also called SLITRK6; SLITRK-6
T1 sequence: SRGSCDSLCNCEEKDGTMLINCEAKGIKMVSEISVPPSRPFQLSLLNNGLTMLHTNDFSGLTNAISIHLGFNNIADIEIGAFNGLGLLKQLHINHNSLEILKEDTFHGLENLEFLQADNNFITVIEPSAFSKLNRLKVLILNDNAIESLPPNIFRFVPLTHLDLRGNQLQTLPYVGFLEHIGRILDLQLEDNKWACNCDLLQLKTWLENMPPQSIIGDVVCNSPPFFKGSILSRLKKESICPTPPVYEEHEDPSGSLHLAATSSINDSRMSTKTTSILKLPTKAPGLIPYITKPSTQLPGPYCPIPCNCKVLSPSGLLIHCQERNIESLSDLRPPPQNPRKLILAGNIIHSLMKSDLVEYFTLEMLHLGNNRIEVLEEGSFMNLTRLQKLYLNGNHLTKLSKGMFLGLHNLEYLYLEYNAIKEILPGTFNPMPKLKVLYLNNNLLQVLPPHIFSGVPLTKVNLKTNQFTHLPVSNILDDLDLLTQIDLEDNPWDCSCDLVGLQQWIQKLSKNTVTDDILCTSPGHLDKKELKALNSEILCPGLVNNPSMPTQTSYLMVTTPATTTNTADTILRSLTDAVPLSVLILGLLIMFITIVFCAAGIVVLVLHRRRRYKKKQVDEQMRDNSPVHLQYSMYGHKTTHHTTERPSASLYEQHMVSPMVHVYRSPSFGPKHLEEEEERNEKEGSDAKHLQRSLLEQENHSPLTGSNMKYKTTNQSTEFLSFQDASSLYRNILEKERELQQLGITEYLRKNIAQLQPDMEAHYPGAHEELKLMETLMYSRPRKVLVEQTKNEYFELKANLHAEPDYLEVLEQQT
The experiment is described as follows: binding to 158P1D7 expressing cells; method not given.

Experiment [2] concerns the target T1, 158P1D7 protein expressed on the cell …. The experiment is described as follows: FACS saturation binding on SW780 cells, one site binding fit (Graphpad Prism).

B1: 158P1D7 MAb Ha15-10ac12 (antibody, human IgG2, kappa, V domains shown)
VH: QVQLVESGGGVVQPGRSLRLSCAASGFTFSSYGMHWVRQAPGKGLEWVAVIWYDGSNQYYADSVKGRFTISRDNSKNTLFLQMHSLRAEDTAVYYCARGLTSGRYGMDVWGQGTTVTVSS
VL: DIVMTQSPLSLPVTPGEPASISCRSSQSLLLSHGFNYLDWYLQKPGQSPQLLIYLGSSRASGVPDRFSGSGSGTDFTLKISRVEAEDVGLYYCMQPLQIPWTFGQGTKVEIKR
notes: Fully human IgG2 kappa antibody from XenoMouse; It was tested both as material purified from the hybridoma and as recombinant material from CHO-K1SV cells; also called Ha15-10ac12 MAb
Consider B1, for which the binding result in experiment [1] is recorded as “binds”.

B2: Ha15-10ac12vcMMAE (other)
heavy: QVQLVESGGGVVQPGRSLRLSCAASGFTFSSYGMHWVRQAPGKGLEWVAVIWYDGSNQYYADSVKGRFTISRDNSKNTLFLQMHSLRAEDTAVYYCARGLTSGRYGMDVWGQGTTVTVSSASTKGPSVFPLAPCSRSTSESTAALGCLVKDYFPEPVTVSWNSGALTSGVHTFPAVLQSSGLYSLSSVVTVPSSNFGTQTYTCNVDHKPSNTKVDKTVERKCCVECPPCPAPPVAGPSVFLFPPKPKDTLMISRTPEVTCVVVDVSHEDPEVQFNWYVDGVEVHNAKTKPREEQFNSTFRVVSVLTVVHQDWLNGKEYKCKVSNKGLPAPIEKTISKTKGQPREPQVYTLPPSREEMTKNQVSLTCLVKGFYPSDIAVEWESNGQPENNYKTTPPMLDSDGSFFLYSKLTVDKSRWQQGNVFSCSVMHEALHNHYTQKSLSLSPGK
light: DIVMTQSPLSLPVTPGEPASISCRSSQSLLLSHGFNYLDWYLQKPGQSPQLLIYLGSSRASGVPDRFSGSGSGTDFTLKISRVEAEDVGLYYCMQPLQIPWTFGQGTKVEIKRTVAAPSVFIFPPSDEQLKSGTASVVCLLNNFYPREAKVQWKVDNALQSGNSQESVTEQDSKDSTYSLSSTLTLSKADYEKHKVYACEVTHQGLSSPVTKSFNRGEC
modifications: vcMMAE (Val-Cit linker with monomethyl auristatin E) on cysteine sulfur atoms after partial reduction of disulfides with TCEP; positions not given; vcMMAE (Val-Cit linker with monomethyl auristatin E) on cysteine sulfur atoms after partial reduction of disulfides with TCEP; positions not given; preferred p between 3.5 and 3.7 drugs per antibody
notes: also called 158P1D7 ADC; Ha15ac12vcMMAE
With B2, the Kd in experiment [2] was 5 pM.

The term Kd denotes the equilibrium constant for the complex coming apart. A high value points to weaker binding.

The record behind these values is patent USRE47103 (AGENSYS, dated 2018).
